Laboratory results: the nanobody polyreactivity screen of Harvey et al. (2022)

Experiment: yeast display, Sf9 membrane polyspecificity reagent, FACS + sequencing; frameworks hold sequencing errors
Outline: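 Sorting gates, low and high (top ~1%), were placed on anti-HA fluorescence to track expression and on streptavidin fluorescence to track reagent binding. A clone's polyreactivity label is taken from the gate it came out of. The reagent was 10% biotinylated, detergent-solubilized Sf9 membrane, applied for 1 hour at 4 °C to galactose-induced yeast display cells.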

## QVQLVESGGGLVQAGGSLRLSCAASGSIFGAYVMGWYRQAPGKERELVAAISRSGASTYYADSVKGRFTISRDNAKNTVYLQMNSLKPEDTAVYYCAARDRQRVSYCYWGQGTQVTVSS
  polyreactivity (PSR sort gate): high polyreactivity

## QVQLVESGGGLVQAGGSLRLSCAASGFTFWGYTMGWYRQAPGKERELVAAITSTGSTYYADSVKGRFTISRDNAKNTVYFLMNSLKPEDTAVYYCAATRGSSEYYYWGQGTQLTVSS
  polyreactivity (PSR sort gate): low polyreactivity

## QVQLVESGGGLVQAGGRLRLSCAASGFIFRRYAIGWYRQAPGKERELVAAINRGGRTYYADSVKGRFTISRDNAKNTVYLQMNSLKPEDTAVYYCAVGSVSSDDWGQGTQVTVSS
  polyreactivity (PSR sort gate): high polyreactivity

## QVQHVESGGGLVQAGGSLRLSCAASGFIFASYTMGWYRQAPGKERELVATISRGGSTYYADSVKGRFTISRDNAKNTVYLQMNSLKPEATAVYYCATDVGKRAGYYGGVYPDFDYWGQGTQVTVSS
  polyreactivity (PSR sort gate): low polyreactivity

## QVQLVESGGGLVQAGGSLRLSCAASGSIFTSYAMGWYRQAPGKERELVAAIDWSGGTTYYADSVKGRFTISRDNAKNPVYLQMNSLKPEDTAVYNRAADIYKYTVGSYDYWGQGTQVTVSS
  polyreactivity (PSR sort gate): low polyreactivity

## QVQLVESGGGLVQAGGSLRLSCAASGFTFLSYTMGWYRQAPGKERELVASITASGTRTYYADSVKGRFTISRDNAKNTVYLQMNSLKPEDTAVYYCNRVGFDYWGQGTQVTVSS
  polyreactivity (PSR sort gate): low polyreactivity

## QVQLVESGGGLVQAGGSLRLSCAASGRIFYYNAMGWYRQAPGKERELVAAINIGGGTKYADSVKGRFTISRDNAKNTVYLQMNSLKPEDTAVYYCAAGIKRYLSYYTRYGYWGQGTQVTVSS
  polyreactivity (PSR sort gate): high polyreactivity

## QVQLVESGGGLVQAGGSLRLSCAASGIIFAYYAMGWYRQAPGKERELVAAIDYSGASTYYADSVKGRFTISRDNAKNTVYLQMNSLKPEDTAVYYCAKYQYDYYTYDYWGQGTQVTVSS
  polyreactivity (PSR sort gate): low polyreactivity

## QVQLVESGGGLVQAGGSLRLSCASSGRTFPAYAMGWYRPAPGKERELVAAISSSGSRTYYAASVKGRFTISRDNAKNTVYLQMNRLIPEDTAVYYCAARGGRRQKVNRDDYWGQVTQVTVSS
  polyreactivity (PSR sort gate): high polyreactivity

## QVQLVESGGGLVQAGGSLRLSCAASGRTFVQYVMGRYRQAPGKERELVAAITSSGGSTYADSVKGRFTISRDNAKNTVYLQMNSLKPEDTAVYYSAADYLDGVGDVEHDYWGQGTQVTVSS
  polyreactivity (PSR sort gate): low polyreactivity

## QVQLVESGGGLVQAGGSLRLSCASSGFTFGVYAMGWYRTAPGKERELVAGITRGGSTNYADSVKGRFTISRDNAKNTVYLQMNSLKPEDTAVYYCAKVSYGYLRSWGRYTRGDYWGQGTQVTVSS
  polyreactivity (PSR sort gate): high polyreactivity

## QVQLVESGGGLVQAGGSLLLSCAASGFTFWNYAMGWYRQAPGKEMEFVASITWSGGSTYYADSVKGRFTISSDNAKNTVYLQMNSLKPEDTAVYYCAVGGSGYGLYGVGYALDYWGQGTQVTVSS
  polyreactivity (PSR sort gate): high polyreactivity

## QVQLVESGGRLVQAGGSLRLSCAASGRIFWWNAMGWYRQAPGKERQFVAAISYRGGSTYYADSVKGRFTISRDNAKNTVYLQMNSLKPEDTAVYYCAADWTYVGPSYSYYYWGQGTQVTVSS
  polyreactivity (PSR sort gate): low polyreactivity

## QVQLVESGGGLVQAGGSLSLSCAASGSTFRHYAMGGYRQAPGKERELVAAISSRGGSTHYADSVKGRFTISRDNAKNTVYLQMNSLKPEDTAVYYCARDTDTQSSRSSDYDYWGQGTQVNVSS
  polyreactivity (PSR sort gate): low polyreactivity

## QGQLVESGGGLVQAGGSLRFSCAASGSTFVWYAMGWYRQAPGKERELVAGINRSGGSRYYADSVKGRFTILRDNAKNTVYLQMNSLKPEDTAVYYCAARGKRFRNSRIAYDYWGKGTQVTVSS
  polyreactivity (PSR sort gate): high polyreactivity

## QVQLVESGGGLDQAGGSLRLSCAASGSIFANNAMGWYRQAPGKERELVATIRSGGTTNYADSVKGRFTISRDNAKNTVYLQMNSLKPEDTAVYYCAAETVSYYSKYDYWGQGTQVTVSS
  polyreactivity (PSR sort gate): low polyreactivity

## QVQLVESGGGLVQAGGSLRLSCAASGRTFYSYAMGWYIQAPGKERELVATINRGSGTNYADSVKGRFTISRDNAKNSVYLQMNSLKPEDSAVYSCAVDRRVLWYHMDYWGQGTKVTVSS
  polyreactivity (PSR sort gate): high polyreactivity

## QVQLVESGGGLVQAGGSLRLSCAASGNNFETNAMGWYRQAPGKERELVAAISASGGSTYYADSVKGRFTISRDYAKNTVYLQMNSLKPEDTAVYYCAARRAVRLYYWGQGTQVTVSS
  polyreactivity (PSR sort gate): high polyreactivity

## QVQLVESGGGLVQAGGSLRLSCAASGSISYPNAMGWYRQAPGKERELVAAINSGDRTNYADSVKGRFTISRDNAKNTVYLQMNSLKPEDTAVYYCARRRYLLWGGYGYWGQGTQVTVSS
  polyreactivity (PSR sort gate): low polyreactivity

## QVQLVESGVGLVQAGGSLRLSCAASGITSRYYAMGCYRQAPGKERELVAAISGNGGRTYYADSVKGRFTISRDIAKNSVYFQMNSMKPEDTAVYYCAARAHKTRHNYWGQGTQVTVSS
  polyreactivity (PSR sort gate): high polyreactivity

## QVQLVESGGGLVQAGGSLRLSCAASGSIFYFYAMGWYRQAPGKERELVATITRGGSTYYADSVKGRFTISRDNAKNTVYLQMNSLKPEDTAVYYCAADGWYWTYIVEYWGQGTQVTVSS
  polyreactivity (PSR sort gate): high polyreactivity

## QVQLVESGGGLVQAGGTLRLSCAASGIIFYSNAMGWYRQAPGKEWELVAGISKSGGSTYYADSVKGRFTISRDNAKNNVYLHMNSLKPEDTAVYYCAVRGGGRYRSWGYDYWGQGTQVTVSS
  polyreactivity (PSR sort gate): high polyreactivity

## QVQLVESGGGLVQAGGSLRLSCAASGNIRYYAMGWYRQAPGKERELVAAITRRSGNTYYADSVKGRFTISRDNAKNTVYLQMNSLKPEDTAVYYCAVVLYTYLTPYYEMDYWGQGTQVTVSS
  polyreactivity (PSR sort gate): high polyreactivity

## QVQLVESGGGLVQAGGSLRLSCAASGSTFVDYAMGWYRQAPGKERELVAAINRSGGRTYYADSVKGRFTISRDNAKNTVYLQMNSLKPEDTAVYYCAAKNPQPDEHGYWGQGTQVTVSS
  polyreactivity (PSR sort gate): high polyreactivity

## QVQLVETGGGLVQAGGSLRLSCAPSGINFTGYDMGWYRQAPGKERELVAAITSGGSTYYADSVKGRFTISRDNAKNTVYLQMNSLKPEDTAVYYCAARAKLTGYWGQGTQVTVSS
  polyreactivity (PSR sort gate): high polyreactivity

## QVQLVESGGGLVQAGGSLRLSCAASGSIFSGYAMGWYRQAPGKERELVAAITRSGGRTYYADSVKGRFTISRDNAKNTVYLQMNSLKPEDTAVYYCAARGGPGDDYWGQGTQVTVSS
  polyreactivity (PSR sort gate): high polyreactivity

## QVQLVESGGGLVQAGGSLRLSWAASGRIPYNAMGWYRQAPGKERELVAAISRSGTRTYYADSVKGRFTISRDNAKNTVFFQMNSLKPEDTAVYYCAAEYTRSFYIYYRFGYWVQGTQVTVSS
  polyreactivity (PSR sort gate): high polyreactivity

## QVQLQESGGGLVQAGGSLPLSCAASGTISVHATMGWYRQATGKERELVAGITDGANTYYADSVKGRFTISRDNSQNTVYLQMNSLTPEDTAVYYCAAYYGTVVHFTYWGQGTQVTVSS
  polyreactivity (PSR sort gate): low polyreactivity

## QVQHVESGRGLVQAGGSLRLSCDASGFTFRSYPIGWYRHAPGKERELVAGITWRGGRTYYADSVKGRFTISRDNAKNTVYLQMNSLKPEDTAVYNCAKLYRYIYGGMDYWGQGTQVTVSS
  polyreactivity (PSR sort gate): high polyreactivity

## QVQLVESGGGLVQAGGSLRLSCADSGSTFGFYAMGWYRKAPGKERELVAAISSSGSTYYADSVKGRFTISRDNAKNTVYLQMNILKPEDTAFYSCGAHPGYYDYDYWGQGTQVTVSS
  polyreactivity (PSR sort gate): low polyreactivity

## QVQLVESGGGLVQAGGSLRLSCAASGRIFHSYVMGWYRQAPGKERELVARISSGGRTNYADSVKGRFTISRDNAKNSVYLQMNSLKPEDTAVYYCAATRLYPRSRYDYWGQGTQVTVSS
  polyreactivity (PSR sort gate): high polyreactivity

## QVQLVASGGGLVQAGGSLRLSCAASGSTFARYAMGWYTPAPGKERELVAAITEGGDRTSYADSVKGRFTISRDNAKNHVYLQMHSLKPEDTAVYYCAAERRYESWYFGYRTMDYWGQGTQVTVSS
  polyreactivity (PSR sort gate): low polyreactivity

## QVQLVESGGGLVQAGGSLRISCAASGRIFVSNAMGWYRQAPGKDRELVAAISKSGARTSYADSVKGRFTISRDNAKNTVYLQMNSLKPEDTAVYYCAAPVRWSGGGEYPNYYWGQGTQVTVSS
  polyreactivity (PSR sort gate): high polyreactivity

## QDQLVDSGGGLVQAGGRLRLSCAASGLTLGSYAMGWSRQAPGQVRELVAAITRGGRSNYADSVKGRFSISRDNAKNTVYLQMYSLKPEDTAVYYCYADGPGYAAKYYWIYDYWGQGTQVTVSS
  polyreactivity (PSR sort gate): low polyreactivity

## QVQLVESGGGLVQAGGSLRLSCAASGFIFYLYAMGWYRQAPGTERELVAAISSSGGGTYYADSVKGRFTISRDNAKNTVYLQMNSLKPEDTAVYYCNVPLSYRSEYDYWGQGTQVTVSS
  polyreactivity (PSR sort gate): high polyreactivity

## QVQLVESGGGLVQAGGSLRLSCAASGRTFSLNAMGWYRPAPGKEREFVAAISSTGGSTYYADSVKGRFTISRDNAKNTVYLQMNSLKPEDTAVYYCAKRSVYRTAQGRYSVAYDYWGQGTQVTVSS
  polyreactivity (PSR sort gate): high polyreactivity

## QVQLVESGGGLVQAGGSLRLSCAASGFISDYYAMGWDRQAPGKERELVADISSGGSTYYADSVKGRCTISRDNAKNTVYLQMNSLKPEDTAVYYCNAGDYFVRFVYYWDDERYDYWGQGTQVTVSS
  polyreactivity (PSR sort gate): low polyreactivity

## QVQLVESGGGLVQAGGSLRLSCAASGSTLLYYVMGWYRQAPGKERELVAAITGTGGRTYYADSVKGRFTISRDNAKNTVYLQMNSLKPEDTAVYYCAADGKFEYDYWGQGTQVTVSS
  polyreactivity (PSR sort gate): low polyreactivity

## QVQLVESGGGLVQAGGSLRLSCAASGRIFARNAMGWYIQAPWKERELVAAISWTGDSTYYADSVKGRFTISRDNAKNTVYLQMNSLKPEDTAVYYCNALVYHTKGDYGYWGQGTQVTVSS
  polyreactivity (PSR sort gate): low polyreactivity

## QVQLVESGGGLVQAGGSLRLSCAASGRILIRNAMGWYRQAPGKERELVAAINRGGGSTYYADSVKGRFTISRDNAKNTVYLQMNSLKPEDTAVYYCAADRKAGYSRVDGDYWGQGTQVTVSS
  polyreactivity (PSR sort gate): low polyreactivity

## QVQLVESGGGLVQAGGSLRLSCAASGSIFAVNAMGWYRQAPGKERELVAAIDWSDGITYYADSVKGRFTISRDNAKNTVYLQMNSLKPEDTAVYYCAADATAYGWYVEQFSFYDNDYWGQGTQVTVSS
  polyreactivity (PSR sort gate): high polyreactivity

## QVQLVESGGGLVQAGGILRLSCADSGRTFWYYAMGWYRQAHGKERELVAAITRGGRTNYADSVKGRFTISRDNAKNTVYLQMNSLKPEDTAVYYCAADYRYPAHSYGYWGQGTQVTVSS
  polyreactivity (PSR sort gate): high polyreactivity

## QVQLVESGGVLVQAGGSLRLSCAASGFIFKYYAMGWYRQATGKERDLVAAISSSGGRKYYADSVKGRFTISRDNAKNTVYLHMNRLKPEDTAVYYCNKATFVTYYFLGYDYWGQGTQVTVSS
  polyreactivity (PSR sort gate): high polyreactivity
